Assay [1] deals with ClC-3c, C-terminally GFP-tagged (mouse). Nature of the assay: FRET or BRET; FLIM-FRET in co-transfected HEK293T cells 24 h after transfection; GFP donor (488 nm), mCherry acceptor; efficiency from the donor lifetime (phasor plot) against donor-only cells. On the technique in general: BRET reads energy transfer from a luciferase to a nearby fluorophore.
For assay [2] the target is unchanged.

Sequence of ClC-3c, C-terminally GFP-tagged (mouse) (P51791 whole entry): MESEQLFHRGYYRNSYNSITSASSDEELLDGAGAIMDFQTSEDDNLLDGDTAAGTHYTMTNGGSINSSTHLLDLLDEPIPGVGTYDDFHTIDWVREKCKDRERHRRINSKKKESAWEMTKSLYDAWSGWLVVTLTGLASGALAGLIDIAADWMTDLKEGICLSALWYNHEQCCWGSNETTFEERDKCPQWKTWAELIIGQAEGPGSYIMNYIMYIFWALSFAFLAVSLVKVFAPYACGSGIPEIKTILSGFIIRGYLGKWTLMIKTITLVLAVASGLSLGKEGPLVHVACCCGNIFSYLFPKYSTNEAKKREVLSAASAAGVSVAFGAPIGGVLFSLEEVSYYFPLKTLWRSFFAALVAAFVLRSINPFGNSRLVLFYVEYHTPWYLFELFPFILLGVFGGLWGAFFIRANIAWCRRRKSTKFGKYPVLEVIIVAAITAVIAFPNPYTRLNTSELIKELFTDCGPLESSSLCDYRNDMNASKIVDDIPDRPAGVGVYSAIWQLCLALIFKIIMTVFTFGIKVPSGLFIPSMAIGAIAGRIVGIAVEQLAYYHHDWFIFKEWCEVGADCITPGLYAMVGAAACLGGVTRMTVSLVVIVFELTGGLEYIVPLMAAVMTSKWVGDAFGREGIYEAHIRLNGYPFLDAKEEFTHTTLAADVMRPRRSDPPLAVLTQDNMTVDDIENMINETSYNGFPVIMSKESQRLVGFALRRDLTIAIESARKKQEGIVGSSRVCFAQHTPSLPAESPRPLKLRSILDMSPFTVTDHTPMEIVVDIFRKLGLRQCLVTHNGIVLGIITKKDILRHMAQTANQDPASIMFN

In turn, “TMEM9 Domain Family Member B (TMEM9B), C-terminally mCherry-tagged (from UniProt Q9JJR8 35-199) (natural protein)” gave an FRET efficiency in assay [1] of 0.17. In assay [2], this substance yielded a fast time constant of ClC-3 current activation in HEK cells co-transfected with TMEM9B (double exponential fit, 500 ms pulses) of 21 ms; a reduction of ClC-3 activity (whole-cell currents) in HEK cells by co-expression of TMEM9B of 70%; a slow time constant of ClC-3 current activation in HEK cells co-transfected with TMEM9B (double exponential fit, 500 ms pulses) of 120 ms.

These data come from paper PMC11355779.
